From paper PMC4559223 come the findings set out here.

Like-named read-outs stand apart in the source and are kept apart here.

Series [1] concerns the target T1, GATA3 C-finger (mouse, UniProt P23772 308-370). The series can be described thus: X-ray crystallography.
In series [2] the target is T1, GATA3 C-finger. Description: X-ray crystallography. The source holds these as a separate data set.

T1 sequence (P23772 308-370): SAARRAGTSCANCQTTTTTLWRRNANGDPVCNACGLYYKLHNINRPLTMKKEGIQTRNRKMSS

B1: ADJ DNA (crystal) (dsDNA)
DNA 1: TTCTGATAAGACTTATCTGC
DNA 2: AAGCAGATAAGTCTTATCAG
In the case of B1, the binding result with GATA3 C-finger [1] was “binds”.

B2: OPP DNA (crystal) (dsDNA)
DNA 1: TTGATAAATCAGAGATAACC
DNA 2: AAGGTTATCTCTGATTTATC
For the molecule B2, the binding result with GATA3 C-finger [2] was “binds”.
